Sequences and labels used below:
B1: (4Hppa^1, Aib^2, A5c^7, Nle^14)hGIP(1-30)-NH2 (peptide)
peptide: XXEGTFXSDYSIAXDKIHQQDFVNWLLAQK
modifications: 4Hppa (3-(4-hydroxyphenyl)propionic acid) at 1; Aib at 2; A5c at 7; Nle at 14; C-terminal amide

This assay concerns the target T1, human recombinant GIP receptor (human, UniProt P48546 22-466).
T1 construct: whole, on cells; Assayed as washed membranes of CHO-K1 cells expressing the receptor; also called hGIP receptor
T1 sequence (looked up): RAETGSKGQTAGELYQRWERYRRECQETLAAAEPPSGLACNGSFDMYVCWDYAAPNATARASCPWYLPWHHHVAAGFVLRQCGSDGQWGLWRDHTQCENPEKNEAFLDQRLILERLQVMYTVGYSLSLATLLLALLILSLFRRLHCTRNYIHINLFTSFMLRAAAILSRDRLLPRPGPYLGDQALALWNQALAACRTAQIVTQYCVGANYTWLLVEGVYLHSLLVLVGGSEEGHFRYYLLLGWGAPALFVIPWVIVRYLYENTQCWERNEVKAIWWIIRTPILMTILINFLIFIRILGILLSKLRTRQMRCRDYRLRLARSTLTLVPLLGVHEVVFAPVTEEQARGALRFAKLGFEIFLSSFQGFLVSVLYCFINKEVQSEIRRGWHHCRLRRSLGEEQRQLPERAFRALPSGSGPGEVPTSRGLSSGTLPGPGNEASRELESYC
Briefly: displacement of [125I]GIP, membranes of CHO-K1 cells expressing human GIP receptor. The procedure:
Membranes for in vitro receptor binding assays were prepared by homogenizing the CHO—K1 clonal cells expressing the human recombinant GIP receptor, with a Brinkman Polytron (setting 6, 15 sec), in ice-cold 50 mM Tris-HCl and then subjected to two centrifugations at 39,000 g for 10 minutes, with a resuspension in fresh buffer in between. For the assay, aliquots of the washed membrane preparations were incubated (100 minutes at 25° C. with 0.05 nM [¹²⁵1]GIP (2200 Ci/mmol) in 50 mM Tris-HCl, 0.1 mg/ml bacitracin, and 0.1% BSA. The final assay volume was 0.5 ml. The incubations were terminated by rapid filtration through GF/C filters (pre-soaked in 0.5% polyethylenimine) using a Brandel filtration manifold. Each tube and filter were then washed three times with 5-ml aliquots of ice-cold buffer.
Specific binding was defined as the total radioligand bound minus that bound in the presence of 1000 nM GIP.
Turning to HXEGTFISDYSIXXDKIHQQDFVNWLLAQKGKKNDWKHNITQ (Aib at 2 and 13; Nle at 14) [(His^1, Aib^2, 13, Nle^14)hGIP(1-42)-OH], the Ki came to 3.33 nM.

For the molecule YXEGTFISDYXIAMDKIHQQDFVNWLLAQKGKKNDWKHNIXQ (3MeO-Tyr at 1; Aib at 2; A5c at 11 and 41) [(3MeO-Tyr^1, Aib^2, A5c^11, 41)hGIP(1-42)-OH], the Ki is 1.24 nM.

Regarding FXEGTFISDYXIAXDKIHQQDFVNWLLAQKGKKNDWKHNITQ (4NH2CH2-Phe at 1; Aib at 2; A5c at 11; Nle at 14) [(4NH2CH2-Phe^1, Aib^2, A5c^11, Nle^14)hGIP(1-42)-OH], the Ki worked out at 95 nM.

As for YXEGTFISDYXIAMDKIHQQDFVNWLLAQKGKKNDWKHNIXQ (3OH-Tyr at 1; Aib at 2; A5c at 11 and 41) [(3OH-Tyr^1, Aib^2, A5c^11, 41)hGIP(1-42)-OH], the inhibition constant (Ki) came out at 6.69 nM.

Consider FXEGTFISDYXIAXDKIHQQDFVNWLLAQKGKKNDWKHNITQ (3F-Phe at 1; Aib at 2; A5c at 11; Nle at 14) [(3F-Phe^1, Aib^2, A5c^11, Nle^14)hGIP(1-42)-OH], for which the Ki was determined as 2.7 nM. As for FXEGTFISDYXIAXDKIHQQDFVNWLLAQKGKKNDWKHNITQ (3,4,5F-Phe at 1; Aib at 2; A5c at 11; Nle at 14) [(3,4,5F-Phe^1, Aib^2, A5c^11, Nle^14)hGIP(1-42)-OH], the figure is 31.1 nM; as for FXEGTFISDYXIAXDKIHQQDFVNWLLAQKGKKNDWKHNITQ (3,5F-Phe at 1; Aib at 2; A5c at 11; Nle at 14) [(3,5F-Phe^1, Aib^2, A5c^11, Nle^14)hGIP(1-42)-OH], 26 nM; as for FXEGTFISDYXIAXDKIHQQDFVNWLLAQKGKKNDWKHNITQ (4NH2-Phe at 1; Aib at 2; A5c at 11; Nle at 14) [(4NH2-Phe^1, Aib^2, A5c^11, Nle^14)hGIP(1-42)-OH], 3.4 nM.

Consider XXEGTFISDYXIAXDKIHQQDFVNWLLAQKGKKNDWKHNITQ (hTyr at 1; Aib at 2; A5c at 11; Nle at 14) [(hTyr^1, Aib^2, A5c^11, Nle^14)hGIP(1-42)-OH], for which the Ki is 77.3 nM. As for XXEGTFISDYXIAXDKIHQQDFVNWLLAQKGKKNDWKHNITQ (Cpa (4-Cl-phenylalanine) at 1; Aib at 2; A5c at 11; Nle at 14) [(Cpa^1, Aib^2, A5c^11, Nle^14)hGIP(1-42)-OH], the figure is 9.4 nM; as for FXEGTFISDYXIAXDKIHQQDFVNWLLAQKGKKNDWKHNITQ (3,4F-Phe at 1; Aib at 2; A5c at 11; Nle at 14) [(3,4F-Phe^1, Aib^2, A5c^11, Nle^14)hGIP(1-42)-OH], 15.7 nM. As for FXEGTFISDYXIAMDKIHQQDFVNWLLAQKGKKNDWKHNIXQ (3OH-Phe at 1; Aib at 2; A5c at 11 and 41) [(3OH-Phe^1, Aib^2, A5c^11, 41)hGIP(1-42)-OH], the figure is 7.52 nM. As for HXEGTFISDYXIAXDKIHQQDFVNWLLAQKGKKNDWKHNITQ (Aib at 2; A5c at 11; Nle at 14) [(His^1, Aib^2, A5c^11, Nle^14)hGIP(1-42)-OH], the figure is 3.18 nM; as for FXEGTFISDYXIAMDKIHQQDFVNWLLAQKGKKNDWKHNIXQ (4CN-Phe at 1; Aib at 2; A5c at 11 and 41) [(4CN-Phe^1, Aib^2, A5c^11, 41)hGIP(1-42)-OH], 14.4 nM; as for YXEGTFISDYXIAXDKIHQQDFVNWLLAQKGKKNDWKHNITQ (3,5I-Tyr at 1; Aib at 2; A5c at 11; Nle at 14) [(3,5I-Tyr^1, Aib^2, A5c^11, Nle^14)hGIP(1-42)-OH], 77.9 nM. Take YXEGTFISDYXIAXDKIHQQDFVNWLLAQKGKKNDWKHNITQ (3Br-Tyr at 1; Aib at 2; A5c at 11; Nle at 14) [(3Br-Tyr^1, Aib^2, A5c^11, Nle^14)hGIP(1-42)-OH]: the Ki was 0.6 nM.

YXEGTFISDYXIAXDKIHQQDFVNWLLAQKGKKNDWKHNITQ (3Cl-Tyr at 1; Aib at 2; A5c at 11; Nle at 14) [(3Cl-Tyr^1, Aib^2, A5c^11, Nle^14)hGIP(1-42)-OH]: the inhibition constant (Ki) amounted to 0.42 nM. As for YXEGTFISDYXIAXDKIHQQDFVNWLLAQKGKKNDWKHNITQ (3I-Tyr at 1; Aib at 2; A5c at 11; Nle at 14) [(3I-Tyr^1, Aib^2, A5c^11, Nle^14)hGIP(1-42)-OH], the figure is 5.03 nM; as for FXEGTFISDYXIAMDKIHQQDFVNWLLAQKGKKNDWKHNIXQ (3F-Phe at 1; Aib at 2; A5c at 11 and 41) [(3F-Phe^1, Aib^2, A5c^11, 41)hGIP(1-42)-OH], 5.43 nM. As for YXEGTFISDYXIAXDKIHQQDFVNWLLAQKGKKNDWKHNITQ (3,5Br-Tyr at 1; Aib at 2; A5c at 11; Nle at 14) [(3,5Br-Tyr^1, Aib^2, A5c^11, Nle^14)hGIP(1-42)-OH], the figure is 21.8 nM.

On to YXEGTFISDYSIXXDKIHQQDFVNWLLAQKGKKNDWKHNITQ (3,5Br-Tyr at 1; Aib at 2 and 13; Nle at 14) [(3,5Br-Tyr^1, Aib^2, 13, Nle^14)hGIP(1-42)-OH], for which the Ki came out at 4.26 nM. FXEGTFISDYXIAMDKIHQQDFVNWLLAQKGKKNDWKHNIXQ (4F-Phe at 1; Aib at 2; A5c at 11 and 41) [(4F-Phe^1, Aib^2, A5c^11, 41)hGIP(1-42)-OH]: the inhibition constant Ki amounted to 5.82 nM. As for B1, the figure is 12.6 nM.

Usually Ki stands for a measure of affinity in units of concentration, obtained from inhibition or displacement.

The record behind these values is patent US20150175665A1 (IPSEN PHARMA S A S, published 2015).
